Substrate in this data set: O=[N+]([O-])c1ccc(O[C@@H]2O[C@H](CO)[C@@H](O)[C@H](O)[C@H]2O)cc1
Kind of data set: purified protein.

Numbering of substitutions follows the chain as printed. In names and notes the source's numbering stands.

B1: β-glucosidase B (BglB) (Paenibacillus polymyxa) (protein)
chain: MSENTFIFPATFMWGTSTSSYQIEGGTDEGGRTPSIWDTFCQIPGKVIGGDCGDVACDHFHHFKEDVQLMKQLGFLHYRFSVAWPRIMPAAGIINEEGLLFYEHLLDEIELAGLIPMLTLYHWDLPQWIEDEGGWTQRETIQHFKTYASVIMDRFGERINWWNTINEPYCASILGYGTGEHAPGHENWREAFTAAHHILMCHGIASNLHKEKGLTGKIGITLNMEHVDAASERPEDVAAAIRRDGFINRWFAEPLFNGKYPEDMVEWYGTYLNGLDFVQPGDMELIQQPGDFLGINYYTRSIIRSTNDASLLQVEQVHMEEPVTDMGWEIHPESFYKLLTRIEKDFSKGLPILITENGAAMRDELVNGQIEDTGRHGYIEEHLKACHRFIEEGGQLKGYFVWSFLDNFEWAWGYSKRFGIVHINYETQERTPKQSALWFKQMMAKNGF
With B1, the Km (in general, the substrate concentration at which the rate is half of its maximum) was 6.5 ± 0.2 mM; the kcat (as a rule, the number of substrate molecules converted per active site and unit of time at saturation) was 17.83 ± 0.167 s⁻¹.

B2: β-glucosidase B (BglB) (Paenibacillus polymyxa; T431I) (protein)
chain: B1 chain with T431I
For B2, the Km turned out to be 5.1 ± 0.1 mM and the kcat was found to be 15.3 ± 0.717 s⁻¹.

B3: β-glucosidase B (BglB) (Paenibacillus polymyxa; K337D) (protein)
chain: B1 chain with K337D
In the case of B3, the Km is on record as 4.3 ± 0.1 mM and the kcat amounted to 13.2 ± 0.667 s⁻¹.

B4: β-glucosidase B (BglB) (Paenibacillus polymyxa; M319C) (protein)
chain: B1 chain with M319C
On to B4, for which the Km worked out at 6.0 ± 0.5 mM and the kcat was found to be 15 ± 0.517 s⁻¹.

These data come from paper doi:10.1101/839027v1.
